Reference: US20020051821A1, “Aliginate particle formulation” (priority 2000, published 2002)

Type: in vitro ADME
Conditions: human, topical or ocular, 3 mg
Protocol: For a composition performance test that more closely parallels eventual practical use, candidate particle compositions can be injected into dermatomed, full thickness human skin samples. Replicate skin samples after injection can be placed on modified Franz diffusion cells containing 32° C. water, physiologic saline or buffer. Additives such as surfactants may be used to prevent binding to diffusion cell components and to maintain sink conditions. Two kinds of measurements can be made to assess performance of the formulation in the skin.
To measure the formulation performance in vitro, the active (guest) component(s) of candidate compositions can be collected by complete or aliquot replacement of the Franz cell receiver solution at predetermined time intervals for chemical assay using HPLC or other suitable analytical technique. Concentration data can be used to generate a delivery profile and calculate a steady state permeation rate. This technique can be used to screen formulations for early indication of drug binding to skin, drug dissolution, efficiency of particle penetration of stratum corneum, etc., prior to in vivo studies.
Modified Franz cells (6.9 ml) were designed for investigation of transdermal flux (FIG. 1). […]

lysozyme [Neat lysozyme]
Bioavailability: 7.1%

Alginate
Bioavailability: 63.8%
